In IntAct's records for PubMed 30262834:

B1: Leucine-rich repeat transmembrane neuronal protein 2 (Homo sapiens), O43300 (parent)
chain: MGLHFKWPLGAPMLAAIYAMSMVLKMLPALGMACPPKCRCEKLLFYCDSQGFHSVPNATDKGSLGLSLRHNHITELERDQFASFSQLTWLHLDHNQISTVKEDAFQGLYKLKELILSSNKIFYLPNTTFTQLINLQNLDLSFNQLSSLHPELFYGLRKLQTLHLRSNSLRTIPVRLFWDCRSLEFLDLSTNRLRSLARNGFAGLIKLRELHLEHNQLTKINFAHFLRLSSLHTLFLQWNKISNLTCGMEWTWGTLEKLDLTGNEIKAIDLTVFETMPNLKILLMDNNKLNSLDSKILNSLRSLTTVGLSGNLWECSARICALASWLGSFQGRWEHSILCHSPDHTQGEDILDAVHGFQLCWNLSTTVTVMATTYRDPTTEYTKRISSSSYHVGDKEIPTTAGIAVTTEEHFPEPDNAIFTQRVITGTMALLFSFFFIIFIVFISRKCCPPTLRRIRQCSMVQNHRQLRSQTRLHMSNMSDQGPYNEYEPTHEGPFIIINGYGQCKCQQLPYKECEV

Variants of: B1
Settings: with NRXN1, P58400-1
NRXN1, P58400-1, sequence (P58400 other isoform, or with tags, fused parts or gaps): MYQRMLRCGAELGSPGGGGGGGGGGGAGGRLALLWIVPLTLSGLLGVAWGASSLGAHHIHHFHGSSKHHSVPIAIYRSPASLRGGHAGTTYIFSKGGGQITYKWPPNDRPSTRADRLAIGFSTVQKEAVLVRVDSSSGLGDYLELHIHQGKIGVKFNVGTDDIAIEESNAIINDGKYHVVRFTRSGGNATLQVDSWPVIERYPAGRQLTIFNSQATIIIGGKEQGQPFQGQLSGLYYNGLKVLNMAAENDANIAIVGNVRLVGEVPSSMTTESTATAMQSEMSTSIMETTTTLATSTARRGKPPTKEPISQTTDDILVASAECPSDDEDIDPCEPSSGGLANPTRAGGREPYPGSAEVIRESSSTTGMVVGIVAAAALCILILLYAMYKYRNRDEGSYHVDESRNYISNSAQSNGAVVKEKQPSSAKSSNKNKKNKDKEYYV

Variant | effect of a mutation on the interaction
R208A | disrupting interaction strength
E348Q | disrupting interaction strength

Continued, values first:

effect of a mutation on the interaction | Variant
decreasing interaction strength | D352A
with no effect | H355A
decreasing interaction strength | F357A
